Measured values from patent publication CN117007808A.

Target: 融合蛋白gD-CD2v (猪伪狂犬病病毒 PRV HN1201; 非洲猪瘟病毒 ASFV SY18)

B1: 非洲猪瘟病毒CD2v蛋白单克隆抗体5G8 (antibody, V domains shown)
VH: YDHDYAKLGTELGSTSNGRQCAGIALTSRMKLWLNWVKQSHGKSLEWIGVIDPNNGGTTYNQKFKGKATLTVDKSSSTAYMEVRSLTSEYSAVYYCARYGKGIGLDYWGQGTSVTVSS
VL: DVVMTQTPLSLPVSLGDQASISCRSSQSLVHRNGNTYLHWYLQKPGQSPKLLIYKVSNRFSGVPDRFSGSGSGTDFTLKISRVEAVDLGVYFCSQSTHVPWTFGGGTKLEIK
Question: Which 阻断率 does the source give for B1 here?
Answer: 91 %
